How the values were obtained:
[1] = target: T1, histidyl t-RNA synthetase library interactor (pAD-GAL4 construct, EBML accession no. Z 11518) (human, UniProt P04386 761-881; P12081 2-509, limits assumed); test: yeast two-hybrid, retransfection of Hf7c
T1 construct: False positive of the Hf7c screen
T1 sequence (looked up): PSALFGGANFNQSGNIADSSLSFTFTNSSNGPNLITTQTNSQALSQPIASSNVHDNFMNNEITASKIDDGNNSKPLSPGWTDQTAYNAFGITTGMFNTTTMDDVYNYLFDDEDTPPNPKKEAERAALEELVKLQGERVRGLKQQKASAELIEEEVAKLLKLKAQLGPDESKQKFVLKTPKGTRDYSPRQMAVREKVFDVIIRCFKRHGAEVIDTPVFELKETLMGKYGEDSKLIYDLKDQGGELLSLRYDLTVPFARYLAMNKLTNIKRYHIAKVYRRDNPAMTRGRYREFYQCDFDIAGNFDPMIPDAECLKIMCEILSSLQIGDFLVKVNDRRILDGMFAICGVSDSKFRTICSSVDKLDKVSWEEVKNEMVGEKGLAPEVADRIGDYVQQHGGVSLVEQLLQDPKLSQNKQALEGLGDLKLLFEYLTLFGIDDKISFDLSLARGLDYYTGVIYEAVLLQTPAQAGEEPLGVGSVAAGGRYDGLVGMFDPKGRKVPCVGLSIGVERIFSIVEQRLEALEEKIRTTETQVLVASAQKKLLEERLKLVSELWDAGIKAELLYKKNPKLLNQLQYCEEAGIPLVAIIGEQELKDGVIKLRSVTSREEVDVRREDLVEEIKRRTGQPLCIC
Protocol: (§1) Transformants were plated onto solid SD/-His-Trp-Leu (incorporating 35 mM 3-AT in the case of Y190 transformants) and incubated for up to 14 days at 30° C. After 3 initial days of growth, plates were inspected daily, and His+ colonies were transferred to SD/-His-Trp-Leu +0.07 M potassium phosphate pH 7+40 µg/ml X-gal plates which incorporated 35 mM 3-AT in the case of Y190 co-transformants. Colonies which remained His+, and in the case of Y190 co-transformants, were also lacZ+, were re-streaked onto fresh plates to check that all colonies were of uniform phenotype. After 6 days incubation at 30° C., yeast colonies were directly harvested, and plasmid DNA was isolated and used to transfect XL1 Blue. Mini-preparations of plasmid DNA were performed for at least 5 XL1 Blue colonies per transfection, with the results of restriction digests differentiating potential interactors from bait plasmids. […] Phenotypes of resulting co-transfectants were assayed quantitatively and/or qualitatively as described above.

[2] = target: T2, RING10 proteasome subunit library interactor (pAD-GAL4 construct, GenBank accession no. X62598) (human, UniProt P04386 761-881; P28062 73-276, limits assumed); test: yeast two-hybrid, retransfection of Hf7c
T2 construct: False positive of the Hf7c screen
T2 sequence (looked up): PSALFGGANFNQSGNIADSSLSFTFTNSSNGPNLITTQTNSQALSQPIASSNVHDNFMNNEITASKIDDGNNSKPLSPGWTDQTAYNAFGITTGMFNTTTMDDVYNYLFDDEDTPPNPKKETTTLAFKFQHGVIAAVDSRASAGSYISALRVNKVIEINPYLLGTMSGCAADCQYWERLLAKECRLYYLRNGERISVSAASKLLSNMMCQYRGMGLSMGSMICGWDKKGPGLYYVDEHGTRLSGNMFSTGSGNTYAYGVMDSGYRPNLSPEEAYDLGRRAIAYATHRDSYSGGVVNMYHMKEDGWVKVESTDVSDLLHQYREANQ
Protocol: as §1

[3] = target: T3, eukaryotic initiation factor 4AII library interactor (pAD-GAL4 construct, DNA Database of Japan accession no. … (human, UniProt P04386 761-881; Q14240 1-407, limits assumed); test: yeast two-hybrid, retransfection of Hf7c
T3 construct: False positive of the Hf7c screen
Protocol: as §1

[4] = target: T4, hD53 interactor (GAL4 activation domain fusion, pACT2hD53) (human, UniProt P04386 768-881 (Saccharomyces cerevisiae entry)); test: yeast two-hybrid in Y190, β-galactosidase assay
T4 construct: range 768-881
T4 sequence: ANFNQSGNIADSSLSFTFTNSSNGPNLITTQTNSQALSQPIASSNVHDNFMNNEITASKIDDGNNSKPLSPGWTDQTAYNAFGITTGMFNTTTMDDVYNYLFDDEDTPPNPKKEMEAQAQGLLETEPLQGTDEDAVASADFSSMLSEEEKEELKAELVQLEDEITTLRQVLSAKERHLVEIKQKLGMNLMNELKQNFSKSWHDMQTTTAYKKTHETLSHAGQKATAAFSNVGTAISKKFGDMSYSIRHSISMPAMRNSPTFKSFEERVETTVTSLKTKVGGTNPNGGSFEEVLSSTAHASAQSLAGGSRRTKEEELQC
Protocol: Interactions between baits and interactors were assessed by qualitatively and/or quantitatively determining HIS3 and lacZ reporter gene activity in Y190 co-transfectants. Reporter gene activities were assessed qualitatively by observing the growth and color development of Y190 co-transfectants on solid SD media lacking His, Trp and Leu (SD/-His-Trp-Leu), and incorporating 0.07 M potassium phosphate pH 7, 35 mM 3-AT, and 40 µg/ml X-gal. For quantitative assessment of interactions, β-galactosidase activity was measured using the substrate o-nitrophenyl β-D-galactopyranoside (ONPG) in liquid cultures (SD/-His-Trp-Leu +35 mM 3-AT) of Y190 co-transfectants.

Measured: binding result

B1: mD52(95-185) bait (GAL4 DNA-binding domain fusion, pAS2-1mD52(95-185)) (other)
chain: MKLLSSIEQACDICRLKKLKCSKEKPKCAKCLKNNWECRYSPKTKRSPLTRAHLTEVESRLERLEQLFLLIFPREDLDMILKMDSLQDIKALLTGLFVQDNVNKDAVTDRLASVETDMPLTLRQHRISATSSSEESSNKGQRQLTVSAYKKTSETLSQAGQKASAAFSSVGSVITKKLEDVKNSPTFKSFEEKVENLKSKVGGAKPAGGDFGEVLNSTANATSTMTTEPPPEQMTESP
notes: also called C-terminal half of mD52
no binding: [1] | [2] | [3] | [4]

Source: US6458943 (INSTITUT NATIONAL DE LA SANTE ET DE LA RECHERCHE MEDICALE, dated 2002)
